Test results published in paper PMC10299379.

Columns and labels:
[1] = biological target: EBV LMP2A-N (latent membrane protein 2A, N-terminal domain, amino acids 1-119) (Epstein-Barr virus) (UniProt P13285); assay: SPR; Biacore T200; LMP1-C and LMP2A-N immobilised on sensor chip CM5 as ligands; affibody molecules injected as analytes in serial dilutions; 1:1 Langmuir fit
[2] = biological target: EBV LMP1-C (latent membrane protein 1, C-terminal domain, amino acids 186-387) (Epstein-Barr virus) (UniProt P03230); assay: as above
Chain of UniProt P03230 (P03230 186-386): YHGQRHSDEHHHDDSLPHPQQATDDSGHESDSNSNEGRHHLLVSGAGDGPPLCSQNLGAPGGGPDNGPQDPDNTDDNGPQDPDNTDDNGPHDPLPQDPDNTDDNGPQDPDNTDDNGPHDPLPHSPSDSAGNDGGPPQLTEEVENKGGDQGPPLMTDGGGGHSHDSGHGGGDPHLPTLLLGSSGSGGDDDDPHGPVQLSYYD

Chain of UniProt P13285 (P13285 1-119): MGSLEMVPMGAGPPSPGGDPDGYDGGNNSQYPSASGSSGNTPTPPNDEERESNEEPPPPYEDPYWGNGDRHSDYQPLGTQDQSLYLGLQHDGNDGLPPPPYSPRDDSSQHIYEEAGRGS

With “SPA-Z scaffold (ZWT) (domain or fragment)” the koff [1] was 5.97e-05 s⁻¹ and the koff [2] was 0.00246 s⁻¹.
